From PMC9655291

Columns and labels:
[1] = molecular target: eel follicle-stimulating hormone receptor wild-type (eel)

EC50 of cAMP accumulation (HTRF) in transfected CHO-K1 cells stimulated with rec-eel FSH, 0.01-1500 ng/mL (eel FSHR-N120Q (eel)): 0.283 µg/mL
EC50 of cAMP accumulation (HTRF) in transfected CHO-K1 cells stimulated with rec-eel FSH, 0.01-1500 ng/mL (eel FSHR-N272Q (eel)): 0.327 µg/mL
EC50 of cAMP accumulation (HTRF) in transfected CHO-K1 cells stimulated with rec-eel FSH, 0.01-1500 ng/mL (eel FSHR-N288Q (eel)): 0.281 µg/mL
EC50 of cAMP accumulation (HTRF) in transfected CHO-K1 cells stimulated with rec-eel FSH, 0.01-1500 ng/mL [1]: 0.201 µg/mL
Substance: recombinant eel FSH (tethered eel FSH β/α) (ligand)
